From patent publication US20130323786A1 (Biogen, published 2013) come the findings set out here.

Assay [1] concerns the target T1, LINGO-Fc (human, UniProt Q96FE5 40-538, limits assumed).
T1 construct: not shown: Fc part
T1 sequence: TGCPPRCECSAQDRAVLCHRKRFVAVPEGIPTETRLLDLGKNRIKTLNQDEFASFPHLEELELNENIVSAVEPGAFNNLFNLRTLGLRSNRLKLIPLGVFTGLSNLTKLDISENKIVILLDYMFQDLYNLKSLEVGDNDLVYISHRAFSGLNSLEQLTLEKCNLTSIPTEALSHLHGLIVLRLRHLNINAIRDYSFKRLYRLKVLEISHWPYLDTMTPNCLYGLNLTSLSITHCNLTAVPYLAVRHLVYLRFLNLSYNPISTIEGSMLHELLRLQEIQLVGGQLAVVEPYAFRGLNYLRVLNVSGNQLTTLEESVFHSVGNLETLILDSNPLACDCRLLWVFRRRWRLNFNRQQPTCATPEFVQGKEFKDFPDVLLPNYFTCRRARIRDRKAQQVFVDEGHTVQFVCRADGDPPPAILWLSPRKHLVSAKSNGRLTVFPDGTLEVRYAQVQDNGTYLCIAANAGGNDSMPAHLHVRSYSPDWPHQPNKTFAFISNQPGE
Nature of the assay: direct ELISA on LINGO-Fc; half-maximal concentration relative to Li33.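 Further: direct binding ELISA on plates coated with LINGO-Fc, concentration giving half of saturating binding, expressed as a ratio to the same value for the comparator.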 Background: In an ELISA, binding on a coated surface is turned into a signal by an enzyme label.

The target of assay [2] is T1, LINGO-Fc. The assay is described as follows: direct ELISA on LINGO-Fc; OD450 at saturation relative to Li33.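 Further: binding to plate-coated LINGO-Fc read by OD450, with the value at maximal saturation divided by the corresponding Li33 value.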
Protocol: A direct binding ELISA assay was performed using LINGO-Fc coated plates. The half maximal concentration that gave 50% saturation of binding was measured and is reported as a ratio of the same measurement for Li33. In addition, the OD450 for maximal saturation value was measured and is reported as a ratio of the same measurement for Li33.

B1: WT Li33 (Table 11) (antibody, V domains shown)
VH: EVQLLESGGGLVQPGGSLRLSCAASGFTFSIYPMFWVRQAPGKGLEWVSWIGPSGGITKYADSVKGRFTISRDNSKNTLYLQMNSLRAEDTATYYCAREGHNDWYFDLWGRGTLVTVSS
VL: DIQMTQSPGTLSLSPGERATLSCRASQSVSSYLAWYQQKPGQAPRLLIYDASNRATGIPARFSGSGSGTEFTLTISSLQSEDFAVYYCQQYDKWPLTFGGGTKVEIKR
Regarding B1, in the assay with LINGO-Fc [1], the “ELISA Ratio” value came out at 1 ratio. The “Plateau Ratio” value with LINGO-Fc [2] was found to be 0.91 ratio.

B2: Li33 variant I57Y (SEQ ID NO:182) (antibody, V domains shown)
VH: EVQLLESGGGLVQPGGSLRLSCAASGFTFSIYPMFWVRQAPGKGLEWVSWIGPSGGYTKYADSVKGRFTISRDNSKNTLYLQMNSLRAEDTATYYCAREGHNDWYFDLWGRGTLVTVSS
VL: DIQMTQSPGTLSLSPGERATLSCRASQSVSSYLAWYQQKPGQAPRLLIYDASNRATGIPARFSGSGSGTEFTLTISSLQSEDFAVYYCQQYDKWPLTFGGGTKVEIKR
notes: unchanged chain from WT Li33
On to B2, for which the “ELISA Ratio” value in the assay with LINGO-Fc [1] was 0 ratio.

B3: Li33 variant I57H (SEQ ID NO:162) (antibody, V domains shown)
VH: EVQLLESGGGLVQPGGSLRLSCAASGFTFSIYPMFWVRQAPGKGLEWVSWIGPSGGHTKYADSVKGRFTISRDNSKNTLYLQMNSLRAEDTATYYCAREGHNDWYFDLWGRGTLVTVSS
VL: DIQMTQSPGTLSLSPGERATLSCRASQSVSSYLAWYQQKPGQAPRLLIYDASNRATGIPARFSGSGSGTEFTLTISSLQSEDFAVYYCQQYDKWPLTFGGGTKVEIKR
notes: unchanged chain from WT Li33
Turning to B3, the “ELISA Ratio” value in the assay with LINGO-Fc [1] came out at 3.2 ratio. For the same molecule, in the assay with LINGO-Fc [2], the “Plateau Ratio” value amounted to 1.07 ratio.

B4: Li33 variant I57W (SEQ ID NO:181) (antibody, V domains shown)
VH: EVQLLESGGGLVQPGGSLRLSCAASGFTFSIYPMFWVRQAPGKGLEWVSWIGPSGGWTKYADSVKGRFTISRDNSKNTLYLQMNSLRAEDTATYYCAREGHNDWYFDLWGRGTLVTVSS
VL: DIQMTQSPGTLSLSPGERATLSCRASQSVSSYLAWYQQKPGQAPRLLIYDASNRATGIPARFSGSGSGTEFTLTISSLQSEDFAVYYCQQYDKWPLTFGGGTKVEIKR
notes: unchanged chain from WT Li33
Consider B4, for which the “ELISA Ratio” value in the assay with LINGO-Fc [1] is 0 ratio.

B5: Li33 variant I57G (SEQ ID NO:159) (antibody, V domains shown)
VH: EVQLLESGGGLVQPGGSLRLSCAASGFTFSIYPMFWVRQAPGKGLEWVSWIGPSGGGTKYADSVKGRFTISRDNSKNTLYLQMNSLRAEDTATYYCAREGHNDWYFDLWGRGTLVTVSS
VL: DIQMTQSPGTLSLSPGERATLSCRASQSVSSYLAWYQQKPGQAPRLLIYDASNRATGIPARFSGSGSGTEFTLTISSLQSEDFAVYYCQQYDKWPLTFGGGTKVEIKR
notes: unchanged chain from WT Li33
As to B5, the “ELISA Ratio” value with LINGO-Fc [1] came to 2.3 ratio. Also, the “Plateau Ratio” value with LINGO-Fc [2] was 0.91 ratio.

B6: Li33 variant I57M (SEQ ID NO:160) (antibody, V domains shown)
VH: EVQLLESGGGLVQPGGSLRLSCAASGFTFSIYPMFWVRQAPGKGLEWVSWIGPSGGMTKYADSVKGRFTISRDNSKNTLYLQMNSLRAEDTATYYCAREGHNDWYFDLWGRGTLVTVSS
VL: DIQMTQSPGTLSLSPGERATLSCRASQSVSSYLAWYQQKPGQAPRLLIYDASNRATGIPARFSGSGSGTEFTLTISSLQSEDFAVYYCQQYDKWPLTFGGGTKVEIKR
notes: unchanged chain from WT Li33
For the molecule B6, the “ELISA Ratio” value with LINGO-Fc [1] was found to be 3.8 ratio. Besides, the “Plateau Ratio” value with LINGO-Fc [2] came out at 1.09 ratio.

B7: Li33 variant I57F (SEQ ID NO:164) (antibody, V domains shown)
VH: EVQLLESGGGLVQPGGSLRLSCAASGFTFSIYPMFWVRQAPGKGLEWVSWIGPSGGFTKYADSVKGRFTISRDNSKNTLYLQMNSLRAEDTATYYCAREGHNDWYFDLWGRGTLVTVSS
VL: DIQMTQSPGTLSLSPGERATLSCRASQSVSSYLAWYQQKPGQAPRLLIYDASNRATGIPARFSGSGSGTEFTLTISSLQSEDFAVYYCQQYDKWPLTFGGGTKVEIKR
notes: unchanged chain from WT Li33
With B7, in the assay with LINGO-Fc [1], the “ELISA Ratio” value is 2 ratio. For the same molecule, the “Plateau Ratio” value with LINGO-Fc [2] came to 0.83 ratio.

B8: Li33 variant I57L (SEQ ID NO:163) (antibody, V domains shown)
VH: EVQLLESGGGLVQPGGSLRLSCAASGFTFSIYPMFWVRQAPGKGLEWVSWIGPSGGLTKYADSVKGRFTISRDNSKNTLYLQMNSLRAEDTATYYCAREGHNDWYFDLWGRGTLVTVSS
VL: DIQMTQSPGTLSLSPGERATLSCRASQSVSSYLAWYQQKPGQAPRLLIYDASNRATGIPARFSGSGSGTEFTLTISSLQSEDFAVYYCQQYDKWPLTFGGGTKVEIKR
notes: unchanged chain from WT Li33
As for B8, the “ELISA Ratio” value in the assay with LINGO-Fc [1] is 0.7 ratio. For the same molecule, in the assay with LINGO-Fc [2], the “Plateau Ratio” value was 1 ratio.
